Measurements taken from the supplement of paper PMC7877785.
± gives the uncertainty stated by the source.

Assay: self-splicing fitness, log relative to wild type (ln ratio); higher = more splicing; Tetrahymena group I intron in knt gene, E. coli kanamycin selection, DiMSum; sequences stand for … in CUCUCU…GGAGGGAAAAGUUAUCAGGCAUGCACCUGGUAGCUAGUCUUUAAACCAAUAGAUUGCAUCGGUUUAAAAGGCAAGACCGUCAAAUUGCGGGAAAGGGGUCAACAGCCGUUCAGUACCAAGUCUCAGGGGAAACUUUGAGAUGGCCUUGCAAAGGGUAUGGUAAUAAGCUGACGGACAUGGUCCUAACCACGCAGCCAAGUCCUAAGUCAACAGAUCUUCUGUUGAUAUGGAUGCAGUUCACAGACUAAAUGUCGGUCGGGGAAGAUGUAUUCUUCUCAUAAGAUAUAGUCGGACCUCUCCUUAAUGGGAGCUAGCGGAUGAAGUGAUGCAACACUGGAGCCGCUGGGAACUAAUUUGUAUGCGAAAGUAUAUUGAUUAGUUUUGGAGUACUCGUGGUCG
Method in brief: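 Six replicate transformations of E. coli BL21(DE3) with a pET-22b(+) library were grown overnight at 37°C or 30°C. The library randomised all eight P1ex-region intron nucleotides, the intron lying in the knt kanamycin-resistance gene, and plates were LB agar with or without 25 μg/mL kanamycin plus 100 μg/mL carbenicillin, 50 μM IPTG and 0.2% rhamnose. Pooled colonies were amplicon-sequenced on an Illumina HiSeq 2500, and fitness is the DiMSum error-weighted combination of wild-type-normalised replicate fold changes, kanamycin versus none.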

Sequence	self-splicing fitness (ln) (30 °C)	self-splicing fitness (ln) (37 °C)
GUGCAGCAAUAUUACGGUGG	-1.63 ± 0.11	-1.16 ± 0.13
GUGCAGCAAUAUUACGGUUG	-2.62 ± 0.19	-1.95 ± 0.16
GUGCAGCAAUAUUACGUACG	-2.19 ± 0.086	-1.18 ± 0.08
GUGCAGCAAUAUUACGUCCU	-0.637 ± 0.12	-0.541 ± 0.096
GUGCAGCAAUAUUACGUCGA	-1.22 ± 0.096	-0.927 ± 0.1
GUGCAGCAAUAUUACGUGGU	-2.55 ± 0.078	-1.1 ± 0.091
GUGCAGCAAUAUUACGUUCG	-1.52 ± 0.09	-0.675 ± 0.14
GUGGAGCAAUAUUACGAAAC		-2.23 ± 0.3
GUGGAGCAAUAUUACGAAGG	-2.69 ± 0.27	-2 ± 0.4
GUGGAGCAAUAUUACGACCU	-1.22 ± 0.094	-0.548 ± 0.11
GUGGAGCAAUAUUACGAGAU	-3.23 ± 0.36	-2.22 ± 0.41
GUGGAGCAAUAUUACGAGCC		-1.59 ± 0.35
GUGGAGCAAUAUUACGCUAU	-2.85 ± 0.25	
GUGGAGCAAUAUUACGCUCG	-1.35 ± 0.16	-1.39 ± 0.23
GUGGAGCAAUAUUACGGAGG	-2.41 ± 0.28	-0.95 ± 0.28
GUGGAGCAAUAUUACGGGGA	-3.12 ± 0.44	-2.65 ± 0.4
GUGGAGCAAUAUUACGGGUA	-2.09 ± 0.31	-2.4 ± 0.45
GUGGAGCAAUAUUACGGGUU	-3.16 ± 0.18	-3.15 ± 0.48
GUGGAGCAAUAUUACGUCGA	-3.42 ± 0.37	-1.48 ± 0.3
GUGGAGCAAUAUUACGUCUG		-1.75 ± 0.32
GUGGAGCAAUAUUACGUGUA	-2.68 ± 0.2	-2.85 ± 0.24
GUGGAGCAAUAUUACGUGUU	-4.54 ± 0.47	
GUGGAGCAAUAUUACGUUUC	-3.39 ± 0.37	-1.9 ± 0.21
GUGUAGCAAUAUUACGAACU	-1.57 ± 0.25	-0.299 ± 0.2
GUGUAGCAAUAUUACGAAUG		-1.51 ± 0.25
GUGUAGCAAUAUUACGAAUU	-2.33 ± 0.064	-1.85 ± 0.097

Sequence	self-splicing fitness (ln) (30 °C)	self-splicing fitness (ln) (37 °C)
GUGUAGCAAUAUUACGACAG	-2.07 ± 0.42	
GUGUAGCAAUAUUACGACCU	-0.216 ± 0.27	0.601 ± 0.24
GUGUAGCAAUAUUACGACUG	-1.71 ± 0.25	-1.47 ± 0.42
GUGUAGCAAUAUUACGAGUC	-1.74 ± 0.36	-1.03 ± 0.3
GUGUAGCAAUAUUACGAUCA	-0.818 ± 0.13	-0.543 ± 0.14
GUGUAGCAAUAUUACGCCCG	-2.51 ± 0.35	-0.74 ± 0.23
GUGUAGCAAUAUUACGCCGA		-2.39 ± 0.42
GUGUAGCAAUAUUACGCUAC	-2.35 ± 0.49	
GUGUAGCAAUAUUACGGACU	-0.979 ± 0.1	-0.103 ± 0.12
GUGUAGCAAUAUUACGGAUA	-2.46 ± 0.23	-0.0303 ± 0.17
GUGUAGCAAUAUUACGGAUC	-1.04 ± 0.13	0.406 ± 0.17
GUGUAGCAAUAUUACGGCAU	-3.48 ± 0.41	-0.582 ± 0.2
GUGUAGCAAUAUUACGGCCG	-0.432 ± 0.22	-0.71 ± 0.34
GUGUAGCAAUAUUACGGCGC	-2.06 ± 0.44	-0.968 ± 0.32
GUGUAGCAAUAUUACGUACG	-2.64 ± 0.23	-1.14 ± 0.16
GUGUAGCAAUAUUACGUAGC	-3.09 ± 0.23	-1.41 ± 0.28
GUGUAGCAAUAUUACGUCGU	-1.67 ± 0.15	-1.1 ± 0.16
GUGUAGCAAUAUUACGUGGA	-3.41 ± 0.3	-2.04 ± 0.23
GUGUAGCAAUAUUACGUGGU	-3.96 ± 0.27	-1.17 ± 0.22
GUGUAGCAAUAUUACGUGUG	-3.21 ± 0.18	-1.69 ± 0.15
GUGUAGCAAUAUUACGUUAA	-2.21 ± 0.2	-1.8 ± 0.16
GUGUAGCAAUAUUACGUUGG	-4.05 ± 0.42	-2.06 ± 0.21
GUUAAGCAAUAUUACGAAGC	-2.32 ± 0.41	-1.82 ± 0.3
GUUAAGCAAUAUUACGAAUA	-1.19 ± 0.25	-0.46 ± 0.32
GUUAAGCAAUAUUACGACGA	-1.13 ± 0.11	-1.14 ± 0.12
GUUAAGCAAUAUUACGCAAU	-3.09 ± 0.44	

Sequence	self-splicing fitness (ln) (30 °C)	self-splicing fitness (ln) (37 °C)
GUUAAGCAAUAUUACGCCAC	-3.63 ± 0.4	-3.27 ± 0.47
GUUAAGCAAUAUUACGCUGC	-3.43 ± 0.33	-1.49 ± 0.32
GUUAAGCAAUAUUACGGAUC	-0.695 ± 0.09	0.135 ± 0.12
GUUAAGCAAUAUUACGGCCA	-0.63 ± 0.17	-0.359 ± 0.23
GUUAAGCAAUAUUACGGCCG	-1.61 ± 0.2	-0.597 ± 0.37
GUUAAGCAAUAUUACGGCGC	0.441 ± 0.15	-0.509 ± 0.14
GUUAAGCAAUAUUACGGGCC		-2.12 ± 0.37
GUUAAGCAAUAUUACGGUCG	-1.32 ± 0.066	-0.767 ± 0.094
GUUAAGCAAUAUUACGGUGG	-3.52 ± 0.17	-1.78 ± 0.15
GUUAAGCAAUAUUACGUCAA	-1.38 ± 0.11	-1.33 ± 0.13
GUUAAGCAAUAUUACGUCGG	-2.75 ± 0.2	-2.55 ± 0.25
GUUAAGCAAUAUUACGUCUC	-0.932 ± 0.1	-0.514 ± 0.12
GUUAAGCAAUAUUACGUCUG	-1.38 ± 0.098	-1.3 ± 0.13
GUUAAGCAAUAUUACGUGCU	-1.6 ± 0.087	-0.714 ± 0.11
GUUAAGCAAUAUUACGUUUG	-2.55 ± 0.12	-1.86 ± 0.17
GUUCAGCAAUAUUACGACUC	0.0553 ± 0.47	
GUUCAGCAAUAUUACGAGGG	-2.72 ± 0.19	-0.563 ± 0.16
GUUCAGCAAUAUUACGAGUU	-1.43 ± 0.088	-0.77 ± 0.086
GUUCAGCAAUAUUACGCCCA	-0.553 ± 0.1	-1.26 ± 0.1
GUUCAGCAAUAUUACGCCUC	-0.427 ± 0.14	0.0352 ± 0.16
GUUCAGCAAUAUUACGCGUA	-0.404 ± 0.12	-0.287 ± 0.15
GUUCAGCAAUAUUACGGAAA	-0.778 ± 0.13	0.58 ± 0.19
GUUCAGCAAUAUUACGGAUA	-0.566 ± 0.13	-0.413 ± 0.1
GUUCAGCAAUAUUACGGCGU	-0.298 ± 0.085	0.138 ± 0.11
GUUCAGCAAUAUUACGUCAA	-1.86 ± 0.14	-0.976 ± 0.14
GUUCAGCAAUAUUACGUCAC	-1.78 ± 0.17	-1.27 ± 0.17

Sequence	self-splicing fitness (ln) (30 °C)	self-splicing fitness (ln) (37 °C)
GUUCAGCAAUAUUACGUCGC	-0.991 ± 0.1	-0.347 ± 0.12
GUUCAGCAAUAUUACGUCUG	-2.67 ± 0.085	-1.54 ± 0.072
GUUCAGCAAUAUUACGUGCA	-0.645 ± 0.11	-0.382 ± 0.11
GUUCAGCAAUAUUACGUUUA	-1.21 ± 0.11	-0.233 ± 0.09
GUUGAGCAAUAUUACGACUC	0.144 ± 0.2	-0.535 ± 0.19
GUUGAGCAAUAUUACGAUUA	-1.94 ± 0.21	-1.23 ± 0.22
GUUGAGCAAUAUUACGCAUU	-2.68 ± 0.2	-2.45 ± 0.33
GUUGAGCAAUAUUACGCCUG		-2.05 ± 0.35
GUUGAGCAAUAUUACGCGCA	-1.02 ± 0.2	-0.636 ± 0.24
GUUGAGCAAUAUUACGCGUG	-3.36 ± 0.15	-2.66 ± 0.21
GUUGAGCAAUAUUACGCUCC	-1.81 ± 0.48	
GUUGAGCAAUAUUACGCUGC		-0.666 ± 0.3
GUUGAGCAAUAUUACGCUUA	-2.55 ± 0.21	-0.787 ± 0.17
GUUGAGCAAUAUUACGGAGA	-2.47 ± 0.45	-1.8 ± 0.35
GUUGAGCAAUAUUACGGAGU	-3.52 ± 0.29	-2.7 ± 0.29
GUUGAGCAAUAUUACGGAUG	-3.56 ± 0.42	-1.75 ± 0.36
GUUGAGCAAUAUUACGGGCC	-3.53 ± 0.5	-1.82 ± 0.39
GUUGAGCAAUAUUACGGGGU	-3.56 ± 0.25	-2.42 ± 0.22
GUUGAGCAAUAUUACGGUCG		-1.73 ± 0.34
GUUGAGCAAUAUUACGUAAC	-2.16 ± 0.42	-2.88 ± 0.3
GUUGAGCAAUAUUACGUACA		-2.37 ± 0.49
GUUGAGCAAUAUUACGUGGU	-3.25 ± 0.28	
GUUGAGCAAUAUUACGUUAA	-2.83 ± 0.38	-2.34 ± 0.25
